Assay results from US6124449, “High affinity TGFβ nucleic acid ligands and inhibitors” (NeXstar Pharmaceuticals, Inc.).
Substitutions are numbered along the chain they refer to.

Experiments:
TGF-beta1 (hTGF-beta1) [1] = biological target: T1, TGF-beta1 (hTGF-beta1) (Homo sapiens, UniProt P01137 P01137:279-390); test: filter; biphasic; Kd1 11.5±2.0 nM; conditions: tags: R&D Systems; biotinylated form (NFTG0) used for BIAcore; chain copies: 2
TGF-beta1 (hTGF-beta1) [2] = biological target: T1, TGF-beta1 (hTGF-beta1); test: filter; biphasic; Kd1 13.9±4.3 nM; conditions: tags: R&D Systems; biotinylated form (NFTG0) used for BIAcore; chain copies: 2
TGF-beta1 (hTGF-beta1) [3] = biological target: T1, TGF-beta1 (hTGF-beta1); test: filter; biphasic; Kd1 14.2±4.5 nM; conditions: tags: R&D Systems; biotinylated form (NFTG0) used for BIAcore; chain copies: 2
TGF-beta1 (hTGF-beta1) [4] = biological target: T1, TGF-beta1 (hTGF-beta1); test: cell_activity; MLEC assay; conditions: tags: R&D Systems; biotinylated form (NFTG0) used for BIAcore; chain copies: 2
Experimental: (§1) Cells were plated at 10^5/mL in 96-well plates in MEM, 10 mM HEPES and 0.2% FBS. Following 4 hours of incubation at 37° C., when cells appeared to attach to the well surface, TGFβ1 was added at 2 pM with or without TGFβ1 ligands that ranged from 0.1 nM to 1 µM. In a second assay performed in order to determine cross-species reactivity, rather than using hTGFβ, a conditioned serum-free medium (CM) was used. CM was conditioned by culturing it in murine 3T3 fibroblast for 48 hours. Before use, this conditioned medium was heat treated at 80° C. for 10 minutes to activate the 3T3 cell derived TGFβ and then it was diluted to 50% and supplemented with 0.2% murine serum. In each assay, hTGFβ1 (or CM) was diluted appropriately in MEM and FBS (0.2% or murine serum) and the ligands were diluted in MEM. TGFβ1 (or CM) and ligand dilutions at 10× the final concentration were premixed at equal volumes and then were added to the cells. Following addition of the TGFβ1 (or CM)-ligand mixture, the cells were incubated for 16–18 hours prior to addition of ^3H-thymidine at 0.25 µCi per well and continued incubation for 7–8 additional hours. After incubation, the cells were washed and harvested with SKATRON filtering units and ^3H-thymidine incorporation in cellular DNA was quantitated by scintillation counting in Ecoscint. Data were plotted and analyzed as described in Park et al. (1990) J. Exp. Med. 171:1073) and Dower et al. (1984) J. Immunol.

TGF-beta1 (hTGF-beta1) [5] = biological target: T1, TGF-beta1 (hTGF-beta1); test: filter; biphasic; Kd1 12.7±4.7 nM; conditions: tags: R&D Systems; biotinylated form (NFTG0) used for BIAcore; chain copies: 2
TGF-beta1 (hTGF-beta1) [6] = biological target: T1, TGF-beta1 (hTGF-beta1); test: filter; biphasic; Kd1 7.7±1.6 nM; conditions: tags: R&D Systems; biotinylated form (NFTG0) used for BIAcore; chain copies: 2
TGF-beta1 (hTGF-beta1) [7] = biological target: T1, TGF-beta1 (hTGF-beta1); test: filter; biphasic; Kd1 12.3±2.4 nM; conditions: tags: R&D Systems; biotinylated form (NFTG0) used for BIAcore; chain copies: 2
TGF-beta1 (hTGF-beta1) [8] = biological target: T1, TGF-beta1 (hTGF-beta1); test: filter; biphasic; Kd1 2.82±1.7 nM; conditions: tags: R&D Systems; biotinylated form (NFTG0) used for BIAcore; chain copies: 2
TGF-beta1 (hTGF-beta1) [9] = biological target: T1, TGF-beta1 (hTGF-beta1); test: filter; biphasic; Kd1 3.8±0.9 nM; conditions: tags: R&D Systems; biotinylated form (NFTG0) used for BIAcore; chain copies: 2
TGF-beta1 (hTGF-beta1) [10] = biological target: T1, TGF-beta1 (hTGF-beta1); test: filter; biphasic; Kd1 23±6.4 nM; labelled 30-35 in Table 4 class 7 but sequence is 30-25; conditions: tags: R&D Systems; biotinylated form (NFTG0) used for BIAcore; chain copies: 2
TGF-beta1 (hTGF-beta1) [11] = biological target: T1, TGF-beta1 (hTGF-beta1); test: filter; biphasic; Kd1 4.05±1.5 nM; conditions: tags: R&D Systems; biotinylated form (NFTG0) used for BIAcore; chain copies: 2
TGF-beta1 (hTGF-beta1) [12] = biological target: T1, TGF-beta1 (hTGF-beta1); test: filter; biphasic; Kd1 6.02±1.5 nM; conditions: tags: R&D Systems; biotinylated form (NFTG0) used for BIAcore; chain copies: 2
TGF-beta1 (hTGF-beta1) [13] = biological target: T1, TGF-beta1 (hTGF-beta1); test: filter; biphasic; Kd1 20.7±13.8 nM; conditions: tags: R&D Systems; biotinylated form (NFTG0) used for BIAcore; chain copies: 2
TGF-beta1 (hTGF-beta1) [14] = biological target: T1, TGF-beta1 (hTGF-beta1); test: filter; biphasic; Kd1 67 nM; P2 4.3%; conditions: tags: R&D Systems; biotinylated form (NFTG0) used for BIAcore; chain copies: 2
TGF-beta1 (hTGF-beta1) [15] = biological target: T1, TGF-beta1 (hTGF-beta1); test: filter; biphasic; Kd1 71.8 nM; P2 4.3%; conditions: tags: R&D Systems; biotinylated form (NFTG0) used for BIAcore; chain copies: 2
TGF-beta1 (hTGF-beta1) [16] = biological target: T1, TGF-beta1 (hTGF-beta1); test: filter; biphasic; Kd1 4.6±0.7 nM; conditions: tags: R&D Systems; biotinylated form (NFTG0) used for BIAcore; chain copies: 2
TGF-beta1 (hTGF-beta1) [17] = biological target: T1, TGF-beta1 (hTGF-beta1); test: filter; biphasic; Kd1 5.0±0.6 nM; conditions: tags: R&D Systems; biotinylated form (NFTG0) used for BIAcore; chain copies: 2
TGF-beta1 (hTGF-beta1) [18] = biological target: T1, TGF-beta1 (hTGF-beta1); test: cell_activity; MLEC growth suppression reversal; conditions: tags: R&D Systems; biotinylated form (NFTG0) used for BIAcore; chain copies: 2; label: 5'-biotin for BIAcore specificity; proposed double pseudoknot
Experimental: as §1, with “Following addition of the TGFβ1 (or CM)-ligand mixture, the cells were incubated for 16–18 hours prior to addition of ^3H-thymidine at 0.25 µCi per well and continued incubation for 7–8 additional hours.” left out

T1 sequence (P01137 279-390, one chain of several): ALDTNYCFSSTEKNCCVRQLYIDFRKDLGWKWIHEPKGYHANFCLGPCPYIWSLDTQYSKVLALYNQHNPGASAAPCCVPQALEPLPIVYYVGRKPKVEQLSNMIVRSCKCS

B1: 40-39 (ssRNA)
RNA: GGGAGGACGAUGCGGUGCCUUUAGCCUAAGUUGAUCUAUUCAGCUUUCUGCCGCAGACGACUCGCCCGA
modifications: 2'-F C and U
- Kd (TGF-beta1 (hTGF-beta1) [1]): 0.00878 nM

B2: 40-22,35 (ssRNA)
RNA: GGGAGGACGAUGCGGUUAGGGGCGUCAACACCGCUAUUACAAUUUUCGCUUCCCAGACGACUCGCCCGA
modifications: 2'-F C and U
- Kd (TGF-beta1 (hTGF-beta1) [2]): 0.0176 nM

B3: 40-23 (ssRNA)
RNA: B2 RNA with U44C
modifications: 2'-F C and U
- Kd (TGF-beta1 (hTGF-beta1) [3]): 0.0156 nM
- Ki (TGF-beta1 (hTGF-beta1) [4]): 0.75 nM

B4: 40-24 (ssRNA)
RNA: GGGAGGACGAUGCGGUUAUGGGCGUCAACACCGCUAUUACAACUUUCGCUUUCCCAGACGACUCGCCCGA
modifications: 2'-F C and U
- Kd (TGF-beta1 (hTGF-beta1) [5]): 0.0275 nM

B5: 40-26 (ssRNA)
RNA: B4 RNA with U19G, C31U, C43U, U44C, U50C
modifications: 2'-F C and U
- Kd (TGF-beta1 (hTGF-beta1) [6]): 0.0408 nM

B6: 40-28 (ssRNA)
RNA: B4 RNA with U19G, U50C, U52C, C53A
modifications: 2'-F C and U
- Kd (TGF-beta1 (hTGF-beta1) [7]): 0.0816 nM

B7: 30-12,24,21,40,41 (ssRNA)
RNA: GGGAGGACGAUGCGGUGUCUAUAGCCUGAUUUUUAAUCUCUGCCGCAGACGACUCGCCCGA
modifications: 2'-F C and U
- Kd (TGF-beta1 (hTGF-beta1) [8]): 0.0608 nM

B8: 40-41 (ssRNA)
RNA: GGGAGGACGAUGCGGUGCCUUUAGCCUGAGUAUACUGAUGUAUAUUCUCUGCCGCAGACGACUCGCCCGA
modifications: 2'-F C and U
- Kd (TGF-beta1 (hTGF-beta1) [9]): 0.0014 nM

B9: 30-25 (ssRNA)
RNA: GGGAGGACGAUGCGGUUGGCAUUGAAAGAGGCGUCAUAUGUUCGCCAGACGACUCGCCCGA
modifications: 2'-F C and U
- Kd (TGF-beta1 (hTGF-beta1) [10]): 0.00114 nM

B10: 30-10 (ssRNA)
RNA: GGGAGGACGAUGCGGUGUCUUUAGCCUAGGUGAUUCCUUCUGCCGCAGACGACUCGCCCGA
modifications: 2'-F C and U
- Kd (TGF-beta1 (hTGF-beta1) [11]): 0.0755 nM

B11: 30-39 (ssRNA)
RNA: B10 RNA with C26U
modifications: 2'-F C and U
- Kd (TGF-beta1 (hTGF-beta1) [12]): 0.0325 nM

B12: 30-35 (ssRNA)
RNA: B10 RNA with G45U
modifications: 2'-F C and U
- Kd (TGF-beta1 (hTGF-beta1) [13]): 0.224 nM

B13: 30-17 (ssRNA)
RNA: B10 RNA with U18C, C26U, U31C, G32U, A33U, U35G
modifications: 2'-F C and U
- Kd (TGF-beta1 (hTGF-beta1) [14]): 0.205 nM

B14: 30-16,27,38,46 (ssRNA)
RNA: B10 RNA with U18C, C26U, U31C, G32A, A33U, U35G
modifications: 2'-F C and U
- Kd (TGF-beta1 (hTGF-beta1) [15]): 0.211 nM

B15: 40-11 (ssRNA)
RNA: GGGAGGACGAUGCGGUGCCUUUAGUCUGAAUCUUCUACCAUGAUUCUCUGCCGCAGACGACUCGCCCGA
modifications: 2'-F C and U
- Kd (TGF-beta1 (hTGF-beta1) [16]): 0.0049 nM

B16: 40-04 (ssRNA)
RNA: GGGAGGACGAUGCGGAUGCCUUUUGCCUUCAGGGUGUAAUUCCUUGAUCUGUCCGCAGACGACUCGCCCGA
modifications: 2'-F C and U
- Kd (TGF-beta1 (hTGF-beta1) [17]): 0.0014 nM

B17: 40-03 (ssRNA)
RNA: GGGAGGACGAUGCGGGGGUUAUUGGGCGUCAACAUCCCCGAUUCUUUUCACGUCCAGACGACUCGCCCGA
modifications: 2'-F C and U
- Ki (TGF-beta1 (hTGF-beta1) [18]): 0.4 nM
